The values below are quoted from earlier work in US20230127008A1, “STAT3-TARGETED BASE EDITOR THERAPEUTICS FOR THE TREATMENT OF MELANOMA AND OTHER CANCERS” (The Broad Institute, Inc., priority 2020, published 2023).

The series has as its system DNA. As to conditions: SpCas9 mutation relative to SEQ ID NO: 74; UniProtKB-Q99ZW2 entry.

B1: 175-307 deletion: SpCas9 mutation relative to canonical SpCas9, SEQ ID NO: 74 (protein)
chain: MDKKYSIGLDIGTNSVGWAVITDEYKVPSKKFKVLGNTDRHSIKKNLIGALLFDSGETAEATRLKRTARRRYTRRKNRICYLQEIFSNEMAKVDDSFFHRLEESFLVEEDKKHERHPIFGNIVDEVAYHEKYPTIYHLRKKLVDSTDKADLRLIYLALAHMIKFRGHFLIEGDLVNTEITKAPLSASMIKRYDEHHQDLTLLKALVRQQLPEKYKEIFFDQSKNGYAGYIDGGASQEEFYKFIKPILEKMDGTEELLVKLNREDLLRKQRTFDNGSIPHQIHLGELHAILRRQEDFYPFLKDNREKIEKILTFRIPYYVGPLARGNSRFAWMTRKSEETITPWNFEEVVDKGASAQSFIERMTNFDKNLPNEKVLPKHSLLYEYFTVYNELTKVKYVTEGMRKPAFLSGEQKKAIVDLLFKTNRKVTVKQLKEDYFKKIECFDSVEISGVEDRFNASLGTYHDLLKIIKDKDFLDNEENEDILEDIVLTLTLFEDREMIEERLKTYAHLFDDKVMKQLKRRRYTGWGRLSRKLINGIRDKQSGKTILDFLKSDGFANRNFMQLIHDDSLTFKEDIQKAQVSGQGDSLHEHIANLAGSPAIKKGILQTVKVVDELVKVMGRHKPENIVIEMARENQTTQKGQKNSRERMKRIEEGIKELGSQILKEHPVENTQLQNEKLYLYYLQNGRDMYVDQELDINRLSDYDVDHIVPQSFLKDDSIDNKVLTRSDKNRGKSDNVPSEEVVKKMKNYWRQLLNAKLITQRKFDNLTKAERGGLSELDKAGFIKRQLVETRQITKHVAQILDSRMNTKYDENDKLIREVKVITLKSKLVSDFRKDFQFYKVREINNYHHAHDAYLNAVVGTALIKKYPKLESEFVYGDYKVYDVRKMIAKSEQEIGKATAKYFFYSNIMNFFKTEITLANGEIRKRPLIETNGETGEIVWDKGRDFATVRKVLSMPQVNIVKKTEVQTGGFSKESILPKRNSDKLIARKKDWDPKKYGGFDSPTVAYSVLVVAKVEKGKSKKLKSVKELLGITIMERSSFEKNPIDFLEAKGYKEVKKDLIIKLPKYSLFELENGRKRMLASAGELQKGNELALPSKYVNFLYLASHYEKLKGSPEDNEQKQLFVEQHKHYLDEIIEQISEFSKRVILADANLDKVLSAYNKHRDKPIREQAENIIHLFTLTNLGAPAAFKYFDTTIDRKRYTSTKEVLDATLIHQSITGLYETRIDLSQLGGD
modifications: Streptococcus pyogenes
In the case of B1, the “decreased DNA cleavage” value is reported as “About 50% decreased DNA cleavage”.
